Assay results taken from the supplement of paper PMC9170038.

What was measured:
[1] = tested on: MS2 coat protein; experiment: apparent KD of MS2 coat protein, switch ON state; designed switch direction (-1 OFF switch, 1 ON switch): -1; higher = weaker reporter binding; details: FMN input: 0 or 200 uM; Eterna round: R93 (includes R88 designs)
In short: (§1)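 Illumina sequencing clusters served as templates for on-chip transcription of the designed RNA switches. SNAP-549-labelled MS2 coat protein was then titrated in twofold steps from 0.7 or 1.5 nM to 3 µM, allowing 0.8–1.5 h per step at first and 10–20 min per step later. The buffer held 100 mM Tris-HCl pH 7.5, 80 mM KCl and 4 mM MgCl2, without or with constant ligand. Apparent KD is the median per design of normalised cluster binding-curve fits.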

[2] = tested on: MS2 coat protein; experiment: apparent KD of MS2 coat protein, switch OFF state (with FMN for OFF switches, without FMN for ON switches); designed switch direction (-1 OFF switch, 1 ON switch): -1; higher = weaker reporter binding; details: FMN input: 0 or 200 uM; Eterna round: R93 (includes R88 designs)
In short: as §1

Sequence	apparent KD of MS2 coat protein [1]	apparent KD of MS2 coat protein [2]
CAGUACUGAGGAUAUACAUGAGGAUCACCCAUGUGUUCCAGCUAGGAAACUAGCAAAAGUAGAAGGCAGUACUG [Ex3: 828]	0.0246 µM	0.343 µM
CAGUACUGAGGAUAUACAUGAGGAUCACCCAUGUGUUCCAGCUAGGAAACUAGCACAUGUAGAAGGCAGUACUG [Ex3: 826]	0.187 µM	0.0168 µM
CCAGGACAUGAGGAUCACCCAUGUGAGGAUAUCUGUAUUCAAUCCUCGGAUUGAAUACAGAGAAGGCACAUGGA [Ex1: 659]	0.0386 µM	0.0268 µM
CCCAUGUCAGGAUAUCAGUAGUAAAAAAAAAAAAUUACUACUGAGAAGGGACAUGAGGAUCACCCAUGUCCAAA [EX4 316: Super Stable 16]	0.0617 µM	0.0387 µM
CCCAUGUCAGGAUAUCAGUAGUAAAAAAAAAAAAUUACUACUGAGAAGGGACAUGAGGAUCACCCAUGUUCAAA [EX4 317: Super Stable 17]	0.0334 µM	0.0283 µM
CCCUCACAUGAGGAUCACCCAUGUGAGGAUAUGCAUAAAAAAAAAAAAAAAAAAAAAUGCAGAAGGCACAUGAA [jn_irvington]	0.013 µM	0.0111 µM
CCCUCACAUGAGGAUCACCCAUGUUAGGAUAUCUACCAGGAGCCUAAAAUGGCCCAACGGAGAAGGAACGUGCA [Arbire]	0.0192 µM	0.0169 µM
CCUAUGUGAGGAUAUAGCCACAUUACGAAUAAGUAGUGUGGCUAGAAGGCACAUGAGGAUCACCCAUGUAUGGG [Exclusion 4.8 (GC closing FMN)]	0.0299 µM	0.0156 µM
CGAAUACAUGAGGAUCACCCAUGUUAGGAUAUGCGAAAACAAAACAAAACAAACAAAAGUAGAAGGAGCAACAA [EXC - 1]	0.0181 µM	0.02 µM
CGCAAGUCAGGAUAUUCGACAAGUAAAUCAGUAGAUCAAAAGAAGAAGGGACAUGAGGAUCACCCAUGUAAAUA [JR_Exc004_Sub403]	0.04 µM	0.026 µM
CGUUUGUUAGGAUAUAGCCACAUUACGAAUAAGUAGUGUGGCUAGAAGGAACAUGAGGAUCACCCAUGUAUGGG [Exclusion 4.3 (AU closing FMN)]	0.11 µM	0.0785 µM
CUCAAGUAAGGAUAUAGAAGAAAAGAAGAGAAAGAAAAGAACUAGAAGGUACAUGAGGAUCACCCAUGUAAGAA [EteRNA is fun!]	0.0416 µM	0.0215 µM
CUCAAGUAAGGAUAUUCAAGAAAAGAAGAGAAAGAAAAGAAGAAGAAGGUACAUGAGGAUCACCCAUGUAAGAA [EteRNA is fun!]	0.0446 µM	0.0353 µM
CUCAAGUAAGGAUAUUUAUGAAAUGAAGUGAAAGAAAAGAAAAAGAAGGUACAUGAGGAUCACCCAUGUUAGAA [EteRNA is fun!]	0.0328 µM	0.0196 µM
CUCAAGUGAGGAUAUACAAAUAGUAAAUAAGUAUAACAAAAGUAGAAGGCACAUGAGGAUCACCCAUGUAAAUA [JR_Exc004_Sub302]	0.0294 µM	0.0263 µM
CUCAAGUUAGGAUAUCUAAGAAAAGAAGAGAAAGAAAAGAAAGAGAAGGAACAUGAGGAUCACCCAUGUAAGAA [EteRNA is fun!]	0.0184 µM	0.0257 µM

Sequence	apparent KD of MS2 coat protein [1]	apparent KD of MS2 coat protein [2]
CUCAUGUCAGGAUAUCAGUAGUAAAAAAAUAAAAUUACUACUGAGAAGGGACAUGAGGAUCACCCAUGUCCAAA [EX4 367: Super Stable 67]	0.0931 µM	0.0361 µM
CUCAUGUCAGGAUAUGUAGCAUGAUACGAAAGUAUCAUGCUACAGAAGGGACAUGAGGAUCACCCAUGUGAUCA [Ex4: 941]	0.0317 µM	0.0255 µM
CUCUAGUUAGGAUAUGCAAGAAAAGAAAAGAAAGAAAAGAAGCAGAAGGAACAUGAGGAUCACCCAUGUAAGAA [EteRNA is fun!]	0.0494 µM	0.0625 µM
CUCUUGUAAGGAUAUCACCACACAAAAAAAAAAAAGUGUGGUGAGAAGGUACAUGAGGAUCACCCAUGUACUAA [Banishment 12 - Jieux - Exclusion 4]	0.0236 µM	0.0252 µM
CUCUUGUCAGGAUAUAGAAGAAAAGAAGAGAAAGAAAAGAACUAGAAGGGACAUGAGGAUCACCCAUGUAAGAA [EteRNA is fun!]	0.0487 µM	0.0492 µM
CUCUUGUCAGGAUAUCGAUGAAUAAUAAAACAGAGGAACAUUGAGAAGGGACAUGAGGAUCACCCAUGUAAAAC [May 83]	0.0731 µM	0.0489 µM
CUCUUGUCAGGAUAUGAAAGAAAAGAAAAGAAAGAAAAGAAUCAGAAGGGACAUGAGGAUCACCCAUGUAAGAA [EteRNA is fun!]	0.064 µM	0.0769 µM
CUCUUGUCAGGAUAUGCAAGAAAAGAAAAGAAAGAAAAGAAGCAGAAGGGACAUGAGGAUCACCCAUGUAAGAA [EteRNA is fun!]	0.0767 µM	0.0777 µM
CUCUUGUGAGGAUAUGUAAGAAAAGAAGAGAAAGAAAAGAAACAGAAGGCACAUGAGGAUCACCCAUGUAAGAA [EteRNA is fun!]	0.0528 µM	0.146 µM
CUUAAACAUGAGGAUCACCCAUGUGAGGAUAUGAUGCGAAUAAAGAAAGAAGAAAGCAUCAGAAGGCACAUAUG	0.0277 µM	0.129 µM
CUUAUGUGAGGAUAUGUACAGAAAAAAAAGGGUGUAACUGUACAGAAGGCACAUGAGGAUCACCCAUGUGAAUA [EX4 380: S S Pseudoknot 5]	0.0619 µM	0.0251 µM
CUUAUGUGAGGAUAUGUACAGAAAAAACUGGGUGUAACUGUACAGAAGGCACAUGAGGAUCACCCAUGUGCAAA [EX4 388: S S Pseudoknot 13]	0.0702 µM	0.0568 µM
GAAAACAGAGGAUAUACAAAAUUAUGACGAAAGUCAUAAAAACAUGAGGAUCACCCAUGUAGAAGGCUGAAGAA [Meechl MS2 Ex2]	0.0282 µM	0.0216 µM
GAAAAGGCAGGAUAUACAGGAUAUAGAAGGAGGAUAUAGAGACAUGAGGAUCACCCAUGUAGAAGGGCCAAAAG [Diamond 80]	0.0483 µM	0.113 µM
GAAAAGUGAGGAUAUGCGAAGGCGUCUGAUAGACGAGGCUAGCAGAAGGCACAUGAGGAUCACCCAUGUGGGAA [Mat - Exclusion 4 - Eli mod - D91]	0.0716 µM	0.133 µM
